We go through one molecule from US20120220015A1 (BIOLEX THERAPEUTICS, published 2012).

Assay in all cases: cell-based or functional assay
In test [1] the target is Lemna-derived plasmin from transgenic line BAP12-B2-150 (aglycosylated plasmin derived from mature human … (human, UniProt P00747 97-580; P00747 581-810).
Test [2] deals with human reference plasmin (commercial, human-derived plasmin) (human).
Test [3] has as its target Lemna-derived plasmin from transgenic line BAP01-B2-230 (derived from mature human plasminogen with the … (human, UniProt P00747 97-580)); P00747 581-810, Asn-289 of mature plasminogen (Asn-212 of plasmin) partly N-glycosylated).

Lemna-derived plasmin from transgenic line BAP01-B2-230 (derived from mature human plasminogen with the …, sequence (P00747 97-580, form in doubt, chain 1 of 2): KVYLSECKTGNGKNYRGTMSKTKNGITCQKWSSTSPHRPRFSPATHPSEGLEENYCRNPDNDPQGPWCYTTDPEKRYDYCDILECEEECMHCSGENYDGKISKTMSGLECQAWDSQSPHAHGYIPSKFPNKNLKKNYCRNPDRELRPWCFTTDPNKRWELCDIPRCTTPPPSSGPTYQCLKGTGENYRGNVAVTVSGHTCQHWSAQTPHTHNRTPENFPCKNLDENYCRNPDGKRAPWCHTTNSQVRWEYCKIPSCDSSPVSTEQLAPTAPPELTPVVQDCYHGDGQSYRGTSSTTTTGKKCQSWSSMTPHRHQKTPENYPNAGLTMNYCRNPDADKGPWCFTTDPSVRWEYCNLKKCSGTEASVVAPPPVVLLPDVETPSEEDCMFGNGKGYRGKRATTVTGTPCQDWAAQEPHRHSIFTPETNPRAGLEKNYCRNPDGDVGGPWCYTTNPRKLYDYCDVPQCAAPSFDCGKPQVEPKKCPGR
Lemna-derived plasmin from transgenic line BAP01-B2-230 (derived from mature human plasminogen with the …, sequence (P00747 581-810 I701V, form in doubt, chain 2 of 2): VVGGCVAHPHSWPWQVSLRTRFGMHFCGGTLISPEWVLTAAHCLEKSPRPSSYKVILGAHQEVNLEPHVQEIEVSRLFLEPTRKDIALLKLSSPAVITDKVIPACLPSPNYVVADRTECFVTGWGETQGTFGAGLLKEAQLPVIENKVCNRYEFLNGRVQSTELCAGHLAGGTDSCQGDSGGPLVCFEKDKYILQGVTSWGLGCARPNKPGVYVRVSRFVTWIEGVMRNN
Lemna-derived plasmin from transgenic line BAP12-B2-150 (aglycosylated plasmin derived from mature human …, sequence (P00747 97-580 N308D, form in doubt, chain 1 of 2): as the sequence (P00747 97-580, form in doubt, chain 1 of 2) above, with N212D counted along it
Lemna-derived plasmin from transgenic line BAP12-B2-150 (aglycosylated plasmin derived from mature human …, sequence (P00747 581-810 I701V, form in doubt, chain 2 of 2): as the sequence (P00747 581-810 I701V, form in doubt, chain 2 of 2) above
human reference plasmin (commercial, human-derived plasmin) (human), sequence (P00747 20-580, chain 1 of 2): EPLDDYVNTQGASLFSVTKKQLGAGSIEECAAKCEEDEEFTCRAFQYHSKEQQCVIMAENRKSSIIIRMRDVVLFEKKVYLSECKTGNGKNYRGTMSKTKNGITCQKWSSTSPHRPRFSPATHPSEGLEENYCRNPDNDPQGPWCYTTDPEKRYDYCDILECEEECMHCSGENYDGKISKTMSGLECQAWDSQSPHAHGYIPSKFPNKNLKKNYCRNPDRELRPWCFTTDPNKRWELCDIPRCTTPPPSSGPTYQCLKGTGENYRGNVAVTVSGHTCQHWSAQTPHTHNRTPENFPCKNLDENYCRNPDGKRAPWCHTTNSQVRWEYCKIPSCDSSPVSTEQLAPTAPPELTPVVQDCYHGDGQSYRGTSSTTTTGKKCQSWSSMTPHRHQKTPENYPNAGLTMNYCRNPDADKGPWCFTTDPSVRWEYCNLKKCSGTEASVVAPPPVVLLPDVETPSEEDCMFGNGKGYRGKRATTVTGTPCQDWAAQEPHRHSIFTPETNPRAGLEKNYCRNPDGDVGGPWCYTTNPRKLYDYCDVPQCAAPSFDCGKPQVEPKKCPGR
human reference plasmin (commercial, human-derived plasmin) (human), sequence (P00747 581-810, chain 2 of 2): as the sequence (P00747 581-810 I701V, form in doubt, chain 2 of 2) above, with V121I counted along it

B1: α2-antiplasmin (other, UniProt P08697 40-491, looked up)
chain: NQEQVSPLTLLKLGNQEPGGQTALKSPPGVCSRDPTPEQTHRLARAMMAFTADLFSLVAQTSTCPNLILSPLSVALALSHLALGAQNHTLQRLQQVLHAGSGPCLPHLLSRLCQDLGPGAFRLAARMYLQKGFPIKEDFLEQSEQLFGAKPVSLTGKQEDDLANINQWVKEATEGKIQEFLSGLPEDTVLLLLNAIHFQGFWRNKFDPSLTQRDSFHLDEQFTVPVEMMQARTYPLRWFLLEQPEIQVAHFPFKNNMSFVVLVPTHFEWNVSQVLANLSWDTLHPPLVWERPTKVRLPKLYLKHQMDLVATLSQLGLQELFQAPDLRGISEQSLVVSGVQHQSTLELSEVGVEAAAATSIAMSRMSLSSFSVNRPFLFFIFEDTTGLPLFVGSVRNPNPSAPRELKEQQDSPGNKDFLQSLKGFPRGDKLFGPDLKLVPPMEEDYPQFGSPK
Consider B1, for which the “percent of plasmin inhibited, no pre-incubation with α2-AP, molar ratio of 1:1 (S-2403 chromogenic assay)” value was 60% in test [1], about 90% in test [2] and 60% in test [3].
